Tests used:
VvGT14a = VvGT14a (Vitis vinifera, UniProt F6H0R6); assay: Substrate screening, radiochemical analysis with UDP-[14C]glucose; assay type: biochemical
Description: (§1) In the initial screening, each reaction mixture (200 μL in total) contained Tris-HCl buffer (100 mM, pH 8, 10 mM 2-mercaptoethanol), 37 pmol UDP-[^14C]glucose (0.01 μCi, Biotrend, Köln, Germany), substrate (50 μL of a 1 mg/mL stock solution) and purified protein (0.5-0.8 μg/μL). […] The organic phase was mixed with 2 mL Pro Flow P+ cocktail (Meridian Biotechnologies Ltd., Epsom, UK) and radioactivity was determined by liquid scintillation counting (LSC, Tri-Carb 2800TR, Perkin Elmer, Waltham Mass., USA). Additionally, negative controls without substrate were performed.
(§2) The recombinant proteins were expressed with an N-terminal GST-tag, affinity purified and verified by SDS-PAGE and Western Blot using GST-specific antibody.

VvGT16 = VvGT16 (Vitis vinifera, UniProt F6HTJ4); assay: as above; assay type: biochemical
Description: as §1, §2

VvGT15c = VvGT15c (Vitis vinifera, UniProt A0ABY9C1E0); assay: as above; assay type: biochemical
Description: as §1, §2

VvGT15a = VvGT15a (Vitis vinifera, UniProt A0ABY9C1E0); assay: as above; assay type: biochemical
Description: as §1, §2

[1] = substrate: CC(C)=CCC/C(C)=C\CO; assay: purified protein, by the assay type; assay type: biochemical, Vitis vinifera; conditions: UDP-glucose fixed 833 μM (for UDP-glucose: geraniol fixed 1.25 mM), Tris-HCl pH 7.5, 30° C.
[2] = substrate: CC(C)=CCC[C@H](C)CCO; assay: purified protein, by the assay type; conditions: UDP-glucose fixed 833 μM (for UDP-glucose: geraniol fixed 1.25 mM), Tris-HCl pH 7.5, 30° C.

Sequence of VvGT14a (F6H0R6 entry or part of it): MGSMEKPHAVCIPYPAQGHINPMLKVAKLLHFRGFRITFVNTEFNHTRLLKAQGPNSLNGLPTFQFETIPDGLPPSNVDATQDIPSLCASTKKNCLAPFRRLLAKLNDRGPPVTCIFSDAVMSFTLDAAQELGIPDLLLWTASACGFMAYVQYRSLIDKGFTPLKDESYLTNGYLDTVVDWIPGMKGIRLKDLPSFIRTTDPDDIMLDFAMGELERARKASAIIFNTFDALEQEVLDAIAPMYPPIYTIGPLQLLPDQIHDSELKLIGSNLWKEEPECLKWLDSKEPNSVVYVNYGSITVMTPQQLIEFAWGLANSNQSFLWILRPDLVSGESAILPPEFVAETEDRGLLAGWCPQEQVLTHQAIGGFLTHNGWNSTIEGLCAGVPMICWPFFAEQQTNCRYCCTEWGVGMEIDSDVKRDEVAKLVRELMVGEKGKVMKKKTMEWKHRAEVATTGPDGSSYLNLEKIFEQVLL
Sequence of VvGT16 (F6HTJ4 entry or part of it): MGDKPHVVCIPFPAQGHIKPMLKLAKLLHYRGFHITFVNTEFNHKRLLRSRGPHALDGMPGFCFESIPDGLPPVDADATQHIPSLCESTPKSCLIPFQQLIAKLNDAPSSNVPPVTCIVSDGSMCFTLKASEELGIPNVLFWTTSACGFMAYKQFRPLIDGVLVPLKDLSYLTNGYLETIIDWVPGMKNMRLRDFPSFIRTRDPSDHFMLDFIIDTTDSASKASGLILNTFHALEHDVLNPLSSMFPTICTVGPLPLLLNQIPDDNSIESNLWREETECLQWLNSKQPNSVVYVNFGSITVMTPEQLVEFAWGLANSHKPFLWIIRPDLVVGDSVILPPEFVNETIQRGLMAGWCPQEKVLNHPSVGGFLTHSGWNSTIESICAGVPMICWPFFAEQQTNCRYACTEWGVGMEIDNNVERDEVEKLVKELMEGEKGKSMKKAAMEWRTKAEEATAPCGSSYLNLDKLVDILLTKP

CC(C)=CCO [3-methyl-2-butenol]
conversion as substrate (in words) (VvGT14a): catalytic activity
conversion as substrate (in words) (VvGT16): transformed

C=C(C)CCO [3-methyl-3-butenol]
conversion as substrate (in words) (VvGT14a): catalytic activity

C=CC(C)(O)CC/C=C(\C)CO (centres unmarked) [8-hydroxylinalool]
conversion as substrate (in words) (VvGT14a): catalytic activity
conversion as substrate (in words) (VvGT15c): able to use
conversion as substrate (in words) (VvGT15a): able to use

OCc1ccccc1 [benzyl alcohol]
conversion as substrate (in words) (VvGT14a): catalytic activity
conversion as substrate (in words) (VvGT16): highest relative activity

CC/C=C\CCO [cis 3-hexenol]
conversion as substrate (in words) (VvGT14a): catalytic activity
conversion as substrate (in words) (VvGT16): transformed

C=CCc1ccc(O)c(OC)c1 [eugenol]
conversion as substrate (in words) (VvGT14a): catalytic activity

CC(C)=CCCC(C)=CCCC(C)=CCO [farnesol]
conversion as substrate (in words) (VvGT14a): catalytic activity
conversion as substrate (in words) (VvGT15a): low activity

CCC/C=C/CO [trans 2-hexenol]
conversion as substrate (in words) (VvGT14a): catalytic activity
conversion as substrate (in words) (VvGT15c): able to use
conversion as substrate (in words) (VvGT16): transformed
conversion as substrate (in words) (VvGT15a): able to use

B1: VvGT15a (Vitis vinifera) (protein)
chain: MPRRVVLVPCPFQGHINPMLQLGAILHSRGFSITVAHTQYNSPDPSNHPDFSFLPIPDGLSDGQNFASLLNLVLAANVNCESPLREYLAEKQEQHGDIACIIHDITMYFAEAVANHLKVPSINLVTSNVSTTIAHNAFPSLLEKGHIPLQGSTLHDPVPELHPLRFKDLPISRLGDLEVFFQILVNMYKKKFSSPIIWNTMDCLEQSSLTQRQQQLQVPFFPIGPLHKLAPPSSSSLLEEDSSCITWLDKQSPKSVIYVSWGSLACMDAKDLAEVAWGLANSNQPFLWVVRPGSVRGSQWIEQLPETFMDTVGERCHIVKWAPQKEVLGHRAVGGFWSHCGWNSTLESISEGVPMICRPYSGDQRVNTRYISHVWKVGLELESDELERVEIERAVRRLMVDGEGEEMRQRAMELKEKVEICTSEGGSSNRALKELVEYISSF
Km ([1]; other: VvGT15a): 48 ± 1.7 µM
kcat ([1]; other: VvGT15a): 0.04 s⁻¹
kcat/Km ([1]; other: VvGT15a): 700 M⁻¹ s⁻¹
Km ([2]; other: VvGT15a): 29 ± 3.0 µM
kcat ([2]; other: VvGT15a): 0.02 s⁻¹
kcat/Km ([2]; other: VvGT15a): 900 M⁻¹ s⁻¹

B2: VvGT15b (Vitis vinifera) (protein)
chain: MPRRVVLVPCPFQGHINPMLQLGAILHSRGFSITVAHTQYNSPDPSNHPDFSFLPIPDGLSDGQNFASLLNLVLAANVNCESPLRECLAEKQEQHGDIACIIHDITMYFAEAVANHLKVPSINLVTSNVSTTIAHNAFPSLLEKGHIPLQGSTLHDPVPELHPLRFKDLPISRLGDLEAFFQILVNMYKKKFSSPIIWNTMDCLEQSSLTQRQQQLQVPFFPIGPLHKLAPPSSSSLLEEDSSCITWLDKHSPKSVIYVSWGSLACMDAKDLAEVAWGLANSNQPFLWVVRPGSVRGSQWIEQLPETFMDTVGERCHIVKWAPQKEVLGHRAVGGFWSHCGWNSTLESISEGVPMICRPYSGDQRVNTRYISHVWKVGLELESDELERVEIERAVRRLMVDGEGEEMRQRAMELKEKVDICTSEGGSSNRALKELVEYISSF
Km ([1]; other: VvGT15b): 40 ± 3.7 µM
kcat ([1]; other: VvGT15b): 0.03 s⁻¹
kcat/Km ([1]; other: VvGT15b): 800 M⁻¹ s⁻¹
Km ([2]; other: VvGT15b): 55 ± 1.3 µM
kcat ([2]; other: VvGT15b): 0.03 s⁻¹
kcat/Km ([2]; other: VvGT15b): 600 M⁻¹ s⁻¹

B3: VvGT15c (Vitis vinifera) (protein)
chain: MPRRVVLVPCPFQGHINPMLQLGAILHSRGFSITVAHTQYNSPDPSNHPDFSFLPIPDGLSDGQNFASLLNLVLAANVNCESPLRECLAEKQEQHGDIACIIHDITMYFAEAVANHLKVPSINLVTSNVSTTIAHNAFPSLLEKGHIPLQGSTLHDPVPELHPLRFKDLPISRLGDLEAFFQILVNMYKKKFSSPIIWNTMDCLEQSSLTQRQQQLQVPFFPIGPLHKLAPPSSSSLLEEDSSCITWLDKHSPKSVIYVSWGSLACMDAKDLAEVAWGLANSNQPFLWVVRPGSVRGSQWIEQLPETFMDTVGERCHIVKWAPQKEVLGHRAVGGFWSHCGWNSTLESISEGVPMICRPYSGDQRVNTRYISHVWKVGLELESDELERVEIERAVRRLMVDGEGEEMRQRAMELKEKVDICTSEGGSSNRALKELVEYISSF
Km ([1]; other: VvGT15c): 28 ± 0.9 µM
kcat ([1]; other: VvGT15c): 0.06 s⁻¹
kcat/Km ([1]; other: VvGT15c): 2200 M⁻¹ s⁻¹
Km ([2]; other: VvGT15c): 20 ± 1.6 µM
kcat ([2]; other: VvGT15c): 0.03 s⁻¹
kcat/Km ([2]; other: VvGT15c): 1800 M⁻¹ s⁻¹

From patent US20170204380A1, “GLYCOSYL TRANSFERASES AND THEIR USES” (TECHNISCHE UNIVERSITAT MUNCHEN, priority 2014, published 2017)
